Experimental data reported in patent publication US20260209320A1 (ALCHEMAB THERAPEUTICS, published 2026).

T1: Peptide 20 (cyno)
T1 peptide: QAQPMLPQPQPPPPP

T2: Peptide 15 (human, cyno)
T2 peptide: QPQPPPPPPPPPPGP

T3: Peptide 14 (human, cyno)
T3 peptide: PQPQPPPPPPPPPPG

T4: Peptide 6 (human)
T4 peptide: QQPPPPPPPPPPPQL

T5: Peptide 4 (human, cyno)
T5 peptide: QQQQQPPPPPPPPPP

T6: Peptide 9 (human)
T6 peptide: AQPLLPQPQPPPPPP

T7: Peptide 13 (human)
T7 peptide: LPQPQPPPPPPPPPP

T8: Peptide 36 (mouse)
T8 peptide: QPPPQAPPPPPPPPP

T9: Peptide 43 (mouse)
T9 peptide: QPPPQGQPPPPPPPL

T10: Peptide 33 (mouse)
T10 peptide: QQQQPPPQAPPPPPP

T11: Peptide 38 (mouse)
T11 peptide: PPQAPPPPPPPPPPQ

T12: Peptide 39 (mouse)
T12 peptide: PQAPPPPPPPPPPQP

T13: Peptide 32 (mouse)
T13 peptide: QQQQQPPPQAPPPPP

T14: Peptide 42 (mouse)
T14 peptide: PQPPPQGQPPPPPPP

T15: Peptide 40 (mouse)
T15 peptide: QAPPPPPPPPPPQPP

T16: Peptide 34 (mouse)
T16 peptide: QQQPPPQAPPPPPPP

T17: Peptide 37 (mouse)
T17 peptide: PPPQAPPPPPPPPPP

T18: Peptide 44 (mouse)
T18 peptide: PPPQGQPPPPPPPLP

T19: Peptide 35 (mouse)
T19 peptide: QQPPPQAPPPPPPPP

T20: Peptide 23 (cyno)
T20 peptide: QQQQQQQQQQPPPPP

T21: Peptide 41 (mouse)
T21 peptide: PPQPPPQGQPPPPPP

B1: ATL_0005335 (antibody, V domains shown)
VH: EVQLVESGGGLVKPGGSLRLSCAASGFTFNKAWMNWVRQAPGKGLEWVGRIKSGIDGGTTDYAAPVQGRFTISRDDSKNTVYLQMNSLNTEDTAVYYCIPPPYYYYYGLDVWGQGTTVTVSS
VL: QSALTQPASVSGSPGQSITISCTGTSSDIGSYNLVSWYQQHPGNAPKPLIYEGSKRPSGVSARFSGSKSGNTASLTISGLQPEDEADYYCSSYAGFNTLVFGGGTKVTVL
notes: human IgG1; also called ATL_5335
B2: ATL_0005331 (antibody, V domains shown)
VH: B1 VH
VL: QSALTQPRSVSGSPGQSITISCTGTSSDVGSYNLVSWFQQHPGKAPKLIIYEVNKRPSGVPDRFSGSKSGNTASLTVSGLQAEDEADYYCGSYAGTNNVFGTGTKLTVL
notes: human IgG1; also called ATL_5331; Human IgG1 ATL_0005331

What was measured:
[1] = biological target: T1, Peptide 20; experiment: peptide microarray; Sp C1; IgG 1 µg/ml
[2] = biological target: T1, Peptide 20; experiment: peptide microarray; Sp C1; IgG 10 µg/ml
[3] = biological target: T2, Peptide 15; experiment: peptide microarray; Sp H; IgG 10 µg/ml
[4] = biological target: T3, Peptide 14; experiment: peptide microarray; Sp H; IgG 10 µg/ml
[5] = biological target: T4, Peptide 6; experiment: peptide microarray; Sp H; IgG 10 µg/ml
[6] = biological target: T2, Peptide 15; experiment: peptide microarray; Sp H; IgG 1 µg/ml
[7] = biological target: T3, Peptide 14; experiment: peptide microarray; Sp H; IgG 1 µg/ml
[8] = biological target: T5, Peptide 4; experiment: peptide microarray; Sp H; IgG 1 µg/ml
[9] = biological target: T6, Peptide 9; experiment: peptide microarray; Sp H; IgG 1 µg/ml
[10] = biological target: T7, Peptide 13; experiment: peptide microarray; Sp H; IgG 1 µg/ml
[11] = biological target: T4, Peptide 6; experiment: peptide microarray; Sp H; IgG 1 µg/ml
[12] = biological target: T2, Peptide 15; experiment: peptide microarray; Sp C2; IgG 10 µg/ml
[13] = biological target: T3, Peptide 14; experiment: peptide microarray; Sp C2; IgG 10 µg/ml
[14] = biological target: T22, Mutant Human HTT Exon 1 48Q (GST) (human); experiment: ELISA
T22 construct: recombinant His- and GST-tagged fusion; also called HTT Exon 1 Q48; 48Q HTT Exon-1

[15] = biological target: T2, Peptide 15; experiment: peptide microarray; Sp C2; IgG 1 µg/ml
[16] = biological target: T3, Peptide 14; experiment: peptide microarray; Sp C2; IgG 1 µg/ml
[17] = biological target: T8, Peptide 36; experiment: peptide microarray; Sp M; IgG 1 µg/ml
[18] = biological target: T9, Peptide 43; experiment: peptide microarray; Sp M; IgG 1 µg/ml
[19] = biological target: T10, Peptide 33; experiment: peptide microarray; Sp M; IgG 1 µg/ml
[20] = biological target: T11, Peptide 38; experiment: peptide microarray; Sp M; IgG 1 µg/ml
[21] = biological target: T12, Peptide 39; experiment: peptide microarray; Sp M; IgG 1 µg/ml
[22] = biological target: T13, Peptide 32; experiment: peptide microarray; Sp M; IgG 1 µg/ml
[23] = biological target: T14, Peptide 42; experiment: peptide microarray; Sp M; IgG 1 µg/ml
[24] = biological target: T15, Peptide 40; experiment: peptide microarray; Sp M; IgG 1 µg/ml
[25] = biological target: T16, Peptide 34; experiment: peptide microarray; Sp M; IgG 1 µg/ml
[26] = biological target: T17, Peptide 37; experiment: peptide microarray; Sp M; IgG 1 µg/ml
[27] = biological target: T18, Peptide 44; experiment: peptide microarray; Sp M; IgG 1 µg/ml
[28] = biological target: T19, Peptide 35; experiment: peptide microarray; Sp M; IgG 1 µg/ml
[29] = biological target: T20, Peptide 23; experiment: peptide microarray; Sp C2; IgG 10 µg/ml
[30] = biological target: T20, Peptide 23; experiment: peptide microarray; Sp C2; IgG 1 µg/ml
[31] = biological target: T21, Peptide 41; experiment: peptide microarray; Sp M; IgG 10 µg/ml
[32] = biological target: T21, Peptide 41; experiment: peptide microarray; Sp M; IgG 1 µg/ml

T22 sequence (chain, as listed by the source mutant limits assumed): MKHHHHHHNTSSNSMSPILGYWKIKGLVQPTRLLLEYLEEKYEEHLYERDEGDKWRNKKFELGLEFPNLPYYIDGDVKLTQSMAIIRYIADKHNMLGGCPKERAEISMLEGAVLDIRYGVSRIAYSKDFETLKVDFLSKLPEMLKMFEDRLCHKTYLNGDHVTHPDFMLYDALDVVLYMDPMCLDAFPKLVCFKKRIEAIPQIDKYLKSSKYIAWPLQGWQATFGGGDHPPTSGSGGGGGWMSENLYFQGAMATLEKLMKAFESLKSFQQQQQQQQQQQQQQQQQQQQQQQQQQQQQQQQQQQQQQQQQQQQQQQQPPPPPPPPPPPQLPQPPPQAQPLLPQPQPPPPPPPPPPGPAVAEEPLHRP

Row | Binder | corrected fluorescence intensity [8] | corrected fluorescence intensity [9] | corrected fluorescence intensity [10] | binding result [14] | corrected fluorescence intensity [17] | corrected fluorescence intensity [18] | corrected fluorescence intensity [19] | corrected fluorescence intensity [20] | corrected fluorescence intensity [21] | corrected fluorescence intensity [22] | corrected fluorescence intensity [23] | corrected fluorescence intensity [24] | corrected fluorescence intensity [25] | corrected fluorescence intensity [26] | corrected fluorescence intensity [27] | corrected fluorescence intensity [28] | other results
1 | B1 | 409 | 622 | 1130 | binds | 778 | 120 | 600 | 194 | 0 | 0 | 612 | 0 | 754 | 742 | 143 | 758 | corrected fluorescence intensity [1]: 187; corrected fluorescence intensity [2]: 1190; corrected fluorescence intensity [3]: 1130; corrected fluorescence intensity [4]: 1630; corrected fluorescence intensity [5]: 176; corrected fluorescence intensity [6]: 234; corrected fluorescence intensity [7]: 335; corrected fluorescence intensity [11]: 0; corrected fluorescence intensity [12]: 0; corrected fluorescence intensity [13]: 0; corrected fluorescence intensity [15]: 0; corrected fluorescence intensity [16]: 0
2 | B2 | 238 | 229 | 373 | binds | 190 | 14.5 | 0 | 0 | 0 | 0 | 41.5 | 0 | 162 | 180 | 0 | 181 | corrected fluorescence intensity [29]: 148; corrected fluorescence intensity [30]: 0; corrected fluorescence intensity [31]: 197; corrected fluorescence intensity [32]: 55
